For test [1], the target named is T1, human TfR extracellular domain with N-terminal His tag (human, UniProt P02786 89-760).
T1 construct: Biotinylated in some assays; also called huTfR; HuTfR
Description: ELISA, IgG. (ELISA stands for enzyme-linked immunosorbent assay.)
Description: (§1) Affinity variants were generated by making individual alanine substitutions in CDR-L3 or CDR-H3 using standard techniques. These variants were screened as IgG by ELISA and SPR to identify positions important for binding to human and cyno TfR; the monovalent affinity of selected variants as Fab was also determined. […] Plates were washed with PBS/0.05% Tween 20 and blocked using Superblock blocking buffer in PBS (Thermo Scientific, Hudson, N.H.). Supernatants containing expressed IgG were diluted serially 1:5 and added to the plate for 1 h. […] Plates were washed with PBS/0.05% Tween 20 and 1:1000 diluted HRP-Goat-anti kappa (Southern Biotech) was added the plate and incubated for 1 h at room temperature. Plates were washed with PBS/0.05% Tween 20 and detected using TMB substrate (BioFX Laboratories, Owings Mills).

For test [2], the target named is T2, cyno TfR extracellular domain (analogous construct to human TfR ecd) (cynomolgus monkey, UniProt Q5RDH6 87-760 (Pongo abelii entry)).
T2 construct: also called cynoTfR ecd
T2 chain: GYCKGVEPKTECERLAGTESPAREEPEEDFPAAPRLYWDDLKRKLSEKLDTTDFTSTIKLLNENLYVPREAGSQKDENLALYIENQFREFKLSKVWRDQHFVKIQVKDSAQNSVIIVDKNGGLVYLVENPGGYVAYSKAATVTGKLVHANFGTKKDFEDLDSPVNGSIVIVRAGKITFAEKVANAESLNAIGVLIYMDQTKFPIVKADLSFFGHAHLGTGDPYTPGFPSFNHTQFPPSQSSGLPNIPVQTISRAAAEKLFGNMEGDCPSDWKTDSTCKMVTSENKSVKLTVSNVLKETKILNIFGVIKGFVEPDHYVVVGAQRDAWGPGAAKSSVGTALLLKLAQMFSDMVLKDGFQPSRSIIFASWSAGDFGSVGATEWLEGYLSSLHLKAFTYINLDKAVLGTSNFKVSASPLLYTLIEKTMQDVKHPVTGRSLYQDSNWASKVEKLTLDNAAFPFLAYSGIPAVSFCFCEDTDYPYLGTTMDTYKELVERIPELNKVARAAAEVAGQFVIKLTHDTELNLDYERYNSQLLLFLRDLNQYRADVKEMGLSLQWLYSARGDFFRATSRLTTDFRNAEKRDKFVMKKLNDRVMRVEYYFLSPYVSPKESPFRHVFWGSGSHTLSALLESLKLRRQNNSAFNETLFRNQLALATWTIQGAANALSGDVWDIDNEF
Description: ELISA, IgG.
Description: as §1

Test [3] has as its target T1, human TfR extracellular domain with …. Briefly: SPR steady state, IgG.
Description: (§2) Antibody affinities were measured using surface plasmon resonance (“SPR”) (Biacore™, GE Healthcare). Anti-His antibody (Qiagen) was coupled onto four different flow cells of a BIACORE™ CM5 sensor chip (Biacore, Inc., Piscataway, N.J.) at between 6000 and 8000 RU. Immobilization was achieved by random coupling through amino groups using a protocol provided by the manufacturer. 10×HBS-P (Biacore, Inc., Piscataway, N.J.) was diluted in water and served as the dilution and running buffer. Purified human or cyno TfR was captured, followed by a 3-fold dilution series of IgG or Fab that was injected at a flow rate of 30 ml/min using the single cycle kinetics method. Affinity constants were determined using a simple 1:1 Langmuir binding model or using a steady state model when kₒₙ or koff was beyond the detection limit. The equilibrium dissociation constant (KD) was calculated as the ratio of association rate constant (kₒₙ) and dissociation rate constant (koff).
(§3) These variants were screened as IgG by ELISA and SPR to identify positions important for binding to human and cyno TfR; the monovalent affinity of selected variants as Fab was also determined. […] Plates were washed with PBS/0.05% Tween 20 and blocked using Superblock blocking buffer in PBS (Thermo Scientific, Hudson, N.H.). Supernatants containing expressed IgG were diluted serially 1:5 and added to the plate for 1 h. […] Plates were washed with PBS/0.05% Tween 20 and 1:1000 diluted HRP-Goat-anti kappa (Southern Biotech) was added the plate and incubated for 1 h at room temperature. Plates were washed with PBS/0.05% Tween 20 and detected using TMB substrate (BioFX Laboratories, Owings Mills). Binding was also assessed by SPR, as described above.
For test [4], the target named is T2, cyno TfR extracellular domain …. Description: SPR steady state, IgG.
Description: as §2, §3
The target in test [5] is T1, human TfR extracellular domain with …. Description: SPR SCK 1:1 fit, IgG.
Description: as §2, §3
Test [6] concerns the target T2, cyno TfR extracellular domain …. Briefly: SPR SCK 1:1 fit, IgG.
Description: as §2, §3
Test [7] deals with T1, human TfR extracellular domain with …. Description: SPR, Fab. Background: SPR reads the build-up and loss of mass on a sensor chip optically.
Description: as §2, §3
The target of test [8] is T2, cyno TfR extracellular domain …. Briefly: SPR, Fab.
Description: as §2, §3
Test [9] deals with T1, human TfR extracellular domain with …. Briefly: SPR, TfR captured by anti-His, Fab injected.
Description: as §2
(§4) In both cases, the SPR experiments were performed as described above.
For test [10], the target named is T2, cyno TfR extracellular domain …. Briefly: SPR, TfR captured by anti-His, Fab injected.
Description: as §2, §4
Test [11] has the same target. Description: SPR, KD on cyno TfR over KD on human TfR.
Description: as §2, §4
In test [12] the target is T3, human TfR, full length, on cells (human, UniProt P02786 1-760).
T3 construct: also called human TfR transiently expressed in 293 cells; TfR on HEL cells
Description: FACS, 293 cells, 1 uM holo-Tf. For orientation: In flow cytometry, cells or beads pass a laser one at a time.
Description: (§5) Briefly, FACS analysis was performed using 293 cells transfected with full length human or cyno TfR using lipofectamin 2000 plus (Invitrogen) 48-72 h before FACS analysis. […] Cells were washed twice with FACS buffer, 50 μl of PE-Goat-anti-murine Fcγ (Jackson ImmunoResearch) was added to cells and they were incubated on ice for 30 min. Cells were washed with FACS buffer and resuspended in 100 μl FACS buffer for analysis.

In test [13] the target is T1, human TfR extracellular domain with …. Briefly: ELISA.
The target of test [14] is T3, human TfR, full length, on cells. Description: FACS, 293 cells, 1 uM holo-Tf. The source holds these as a separate data set.
Description: as §5
For test [15], the target named is T4, human BACE1 (R&D Systems) (human, UniProt P56817).
T4 construct: recombinant, commercial (R&D Systems)
Description: SPR (Biacore).
Description: Binding affinities of certain anti-BACE1 IgGs were measured by surface plasmon resonance (SRP) using a BIAcore™-T100 instrument. […] Association rates (kon) and dissociation rates (koff) were calculated using a simple one-to-one Langmuir binding model (BIAcore Evaluation Software version 3.2). The equilibrium dissociation constant (KD) was calculated as the ratio koff/kon.

Test [16] addresses T5, BACE1 in primary mouse cortical neurons (mouse, UniProt P56818 46-501). Briefly: cell-based or functional assay.
The target in test [17] is T5, BACE1 in primary mouse cortical neurons. Briefly: cell-based or functional assay. The source holds these as a separate data set.
In test [18] the target is T6, human BACE1 ECD.
T6 construct: analyte of the Octet assay (200 nM) and enzyme of the first short substrate assay; also called human BACE1 extracellular domain
Description: Octet, pH 7.5.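 Also: antibodies captured on anti-human capture sensor tips, dissociation monitored in PBS with BSA, Kd obtained from kinetic fit to a one-to-one binding model.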
Description: (§6) Anti-BACE1 antibodies were loaded onto anti-human capture (AHC) sensors (tips) followed by 60 seconds baseline in assay buffer. […] Tips were transferred to assay buffer for 5 minutes, 30 minutes, or 120 minutes depending on the off-rate, for off-rate measurement. Assay buffer was either PBS+0.1% BSA, pH 7.5; or PBS+0.1% BSA, pH 5.0. Kinetics were analyzed using a 1:1 binding model.

Test [19] concerns the target T7, murine BACE1 ECD.
T7 construct: analyte of the Octet assay (200 nM) and enzyme of the first short substrate assay
Briefly: Octet, pH 7.5.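 Also: antibodies captured on anti-human capture sensor tips, dissociation monitored in PBS with BSA, Kd obtained from kinetic fit to a one-to-one binding model.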
Description: as §6

Test [20] has as its target T6, human BACE1 ECD. Briefly: Octet, pH 5.0.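 Also: antibodies captured on anti-human capture sensor tips, dissociation monitored in PBS with BSA buffer, kinetics fitted with a one-to-one binding model.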
Description: as §6
Test [21] addresses T7, murine BACE1 ECD. Description: Octet, pH 5.0.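 Also: antibodies captured on anti-human capture sensor tips, dissociation monitored in PBS with BSA buffer, kinetics fitted with a one-to-one binding model.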
Description: as §6

Positions count from the first letter of the chain named. Names may count otherwise. Read-outs that look alike come from different tables or passages of the source.

T5 sequence (P56818 46-501): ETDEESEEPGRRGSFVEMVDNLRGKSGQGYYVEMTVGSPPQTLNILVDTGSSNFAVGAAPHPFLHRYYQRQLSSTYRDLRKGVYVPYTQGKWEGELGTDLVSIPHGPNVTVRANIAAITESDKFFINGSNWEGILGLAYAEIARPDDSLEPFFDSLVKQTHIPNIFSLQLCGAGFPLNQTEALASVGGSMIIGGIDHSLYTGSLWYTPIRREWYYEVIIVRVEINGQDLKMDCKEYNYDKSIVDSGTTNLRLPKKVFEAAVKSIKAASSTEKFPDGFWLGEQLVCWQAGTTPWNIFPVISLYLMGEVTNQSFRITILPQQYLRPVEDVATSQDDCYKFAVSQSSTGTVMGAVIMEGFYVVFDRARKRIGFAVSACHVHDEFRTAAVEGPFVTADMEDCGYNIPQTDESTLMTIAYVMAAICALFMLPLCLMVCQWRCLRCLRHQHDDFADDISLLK
T1 sequence (P02786 89-760 G142S): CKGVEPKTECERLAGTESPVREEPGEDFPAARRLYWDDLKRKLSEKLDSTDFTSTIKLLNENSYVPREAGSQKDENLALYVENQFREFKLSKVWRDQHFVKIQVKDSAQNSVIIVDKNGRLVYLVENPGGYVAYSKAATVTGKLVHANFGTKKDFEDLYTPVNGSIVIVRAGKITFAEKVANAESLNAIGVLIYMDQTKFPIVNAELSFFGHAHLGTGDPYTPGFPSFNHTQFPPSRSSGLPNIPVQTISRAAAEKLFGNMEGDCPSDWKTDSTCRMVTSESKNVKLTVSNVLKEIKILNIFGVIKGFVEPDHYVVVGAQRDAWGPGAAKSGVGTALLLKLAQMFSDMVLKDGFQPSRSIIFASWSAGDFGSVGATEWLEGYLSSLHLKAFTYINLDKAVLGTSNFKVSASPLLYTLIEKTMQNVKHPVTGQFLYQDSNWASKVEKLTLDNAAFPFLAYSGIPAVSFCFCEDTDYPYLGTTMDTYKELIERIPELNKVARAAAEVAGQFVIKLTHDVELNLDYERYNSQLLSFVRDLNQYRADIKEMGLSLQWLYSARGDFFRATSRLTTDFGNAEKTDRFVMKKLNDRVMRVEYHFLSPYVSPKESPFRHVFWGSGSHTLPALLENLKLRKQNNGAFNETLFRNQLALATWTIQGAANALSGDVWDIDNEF
T6 sequence (single chain, as listed by the source limits assumed): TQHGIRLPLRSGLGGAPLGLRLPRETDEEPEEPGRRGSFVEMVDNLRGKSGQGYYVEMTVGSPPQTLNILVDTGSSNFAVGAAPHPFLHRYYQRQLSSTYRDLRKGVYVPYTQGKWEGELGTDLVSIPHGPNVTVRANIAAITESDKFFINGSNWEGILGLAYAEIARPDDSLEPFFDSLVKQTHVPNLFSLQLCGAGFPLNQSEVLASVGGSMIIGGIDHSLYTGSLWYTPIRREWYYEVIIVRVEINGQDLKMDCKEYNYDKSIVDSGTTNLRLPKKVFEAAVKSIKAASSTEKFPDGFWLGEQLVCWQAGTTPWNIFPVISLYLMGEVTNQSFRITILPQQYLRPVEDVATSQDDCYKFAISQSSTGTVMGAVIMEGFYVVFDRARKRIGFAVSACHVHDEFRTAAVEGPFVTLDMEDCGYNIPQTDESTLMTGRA
T7 sequence (single chain, as listed by the source limits assumed): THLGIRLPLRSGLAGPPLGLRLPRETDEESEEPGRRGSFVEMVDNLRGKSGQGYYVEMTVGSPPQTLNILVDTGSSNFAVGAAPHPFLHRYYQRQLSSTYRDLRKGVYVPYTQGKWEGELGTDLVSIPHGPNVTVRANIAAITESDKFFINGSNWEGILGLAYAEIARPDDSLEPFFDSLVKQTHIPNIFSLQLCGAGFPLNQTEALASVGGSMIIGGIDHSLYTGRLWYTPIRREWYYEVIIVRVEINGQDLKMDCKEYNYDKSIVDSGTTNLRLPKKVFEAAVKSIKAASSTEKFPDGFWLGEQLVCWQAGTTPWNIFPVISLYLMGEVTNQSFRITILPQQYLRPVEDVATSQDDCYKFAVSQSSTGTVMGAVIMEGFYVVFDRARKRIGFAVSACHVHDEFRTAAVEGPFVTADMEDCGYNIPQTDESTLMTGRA
T4 sequence (P56817 22-457 limits assumed): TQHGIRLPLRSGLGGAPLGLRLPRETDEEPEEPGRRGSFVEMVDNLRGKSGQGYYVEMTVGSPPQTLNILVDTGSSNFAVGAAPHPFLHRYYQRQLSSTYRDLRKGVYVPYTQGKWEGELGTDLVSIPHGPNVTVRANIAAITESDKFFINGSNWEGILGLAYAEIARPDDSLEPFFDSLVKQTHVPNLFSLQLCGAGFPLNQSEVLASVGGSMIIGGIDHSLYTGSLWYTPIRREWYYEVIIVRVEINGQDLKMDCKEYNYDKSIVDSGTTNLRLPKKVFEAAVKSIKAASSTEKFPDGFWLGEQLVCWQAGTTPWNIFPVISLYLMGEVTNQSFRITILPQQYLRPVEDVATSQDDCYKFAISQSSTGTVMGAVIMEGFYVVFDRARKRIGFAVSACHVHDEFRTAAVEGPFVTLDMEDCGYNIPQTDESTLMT

B1: G93A (antibody, V domains shown)
VH: EVQLVQSGAEVKKPGASVKVSCKASGYTFTSYWMHWVRQAPGQRLEWIGEINPTNGRTNYIEKFKSRATLTVDKSASTAYMELSSLRSEDTAVYYCARGTRAYHYWGQGTMVTVSS
VL: DIQMTQSPSSLSASVGDRVTITCRASDNLYSNLAWYQQKPGKSPKLLVYDATNLADGVPSRFSGSGSGTDYTLTISSLQPEDFATYYCQHFWATPLTFGQGTKVEIK
notes: also called 15G11.v5 G93A (CDR-L3) IgG
In general, EC50 refers to the concentration that produces a half-maximal response. Higher therefore signals lower potency in that assay. For orientation: Kd means the concentration at which binding is half-saturated. As to B1, the EC50 in test [1] was 0.0145 µg/mL; in [2], 0.0508 µg/mL. Also, the Kd came out at 150 nM in [3], 412 nM in [4], 40 nM in test [5] and 61 nM in test [6].

B2: P95A (Fab, V domains shown)
VH: B1 VH
VL: B1 VL with A93G, P95A
notes: also called 15G11.v5 P95A (CDR-L3) Fab
For B2, the Kd in test [7] was 170 nM; in [8], 886 nM.

B3: Hu15G11.HC51A Fab (Fab, V domains shown)
VH: B1 VH with I51A
VL: B1 VL with A93G
notes: Fab
The term koff denotes the rate constant with which the complex falls apart. The kon is the second-order rate constant of association. Low values mean slower complex formation, high ones faster complex formation. In test [9], B3 came in with a koff of 0.0104 s⁻¹ and a kon of 433000 M⁻¹ s⁻¹. Besides, in test [10], the koff turned out to be 0.0329 s⁻¹ and the kon is 313000 M⁻¹ s⁻¹. For the same molecule, the Cy/hu ratio in test [11] is 4.4.

B4: P95A (antibody, V domains shown)
VH: B1 VH
VL: B1 VL with A93G, P95A
notes: also called 15G11.v5 P95A (CDR-L3) IgG
Consider B4, for which the EC50 in test [1] worked out at 0.0106 µg/mL; in [2], 0.0406 µg/mL. The Kd was determined as 94 nM in test [3], 258 nM in [4], 29 nM in test [5] and 57 nM in [6].

B5: Hu15G11.HC53A Fab (Fab, V domains shown)
VH: B1 VH with T54A
VL: B1 VL with A93G
notes: Fab; also called 15G11.53A Fab
As for B5, in test [9], the koff came out at 0.0115 s⁻¹ and the kon is 890000 M⁻¹ s⁻¹. Besides, in test [10], the koff was 0.025 s⁻¹ and the kon amounted to 484000 M⁻¹ s⁻¹. In addition, the Cy/hu ratio in test [11] is 4.

B6: Q89A (antibody, V domains shown)
VH: B1 VH
VL: B1 VL with Q89A, A93G
notes: also called 15G11.v5 Q89A (CDR-L3) IgG
With B6, the EC50 in test [1] was 0.03 µg/mL; in [2] it was 0.506 µg/mL. The Kd in [3] was found to be 212 nM; in test [4], 591 nM; in [5] it was 125 nM; in [6], 268 nM.

B7: G93A (Fab, V domains shown)
VH: B1 VH
VL: B1 VL
notes: also called 15G11.v5 G93A (CDR-L3) Fab
As to B7, the Kd came out at 245 nM in test [7] and 1300 nM in test [8].

B8: Hu15G11.HC34A Fab (Fab, V domains shown)
VH: B1 VH with M34A
VL: B1 VL with A93G
notes: Fab
In test [9], B8 showed a koff of 0.00403 s⁻¹ and a kon of 564000 M⁻¹ s⁻¹. For the same molecule, in test [10], the koff came to 0.0099 s⁻¹ and the kon is 304000 M⁻¹ s⁻¹. The Cy/hu ratio in test [11] was determined as 4.6.

B9: 13C3 (antibody, V domains shown)
VH: QVQLQQPGAELVKPGASVKLSCKASGYTFASYWMHWVKQRPGQGLEWIGEINPINGRTNYSEKFKKKATLTVDKSSSTAYMQLSSLTSEDSAVYYCARGTRAYHYWGQGTSVTVSS
VL: DIQMTQSPASLSVSVGETVTITCRASDNIYSNLAWYQQKQGKSPQLLVYAATNLADGVPSRFSGSGSGTQYSLKINSLQSEDFGSYYCQHFWGTPLMFGSGTKLELK
notes: Mouse hybridoma antibody; also called clone 13C3
Consider B9, for which the binding result in [12] and in [13] was “binds” throughout.

B10: 16G5 (antibody, V domains shown)
VH: B9 VH with K13R, S17A, A30T, I54T, S61N, K63N, K66S, Y105F
VL: B9 VL with M4L, S7T, D27E, N53D, S63R, M97T, S100A, K107I
notes: Mouse hybridoma antibody; also called clone 16G5
Regarding B10, the binding result in test [12] and in [13] was “binds” each time.

B11: 4C2 (antibody, V domains shown)
VH: QVQLQQPGSELVRPGASVKLSCKASGYTFTSYWMHWVKQRHGQGLEWIGNIYPGSGSTKYDEKFKSKGTLTVDTSSSTAYMHLSSLTSEDSAVYYCTRGGYDSRAWFAHWGQGTLVTVSA
VL: DIVLTQSPASLAVSLGQRATISCRARQSVSTSSYSFMHWYQQKPGQPPKLLIKYASIQESGVPARFSGSGSGTDFTLNILPVEEEDTATYYCQHTWEIPFTFGSGTNLEIK
notes: Mouse hybridoma antibody; also called clone 4C2
Take B11: the binding result in test [13] and in [14] was “binds” in each case.

B12: 15D2 (antibody, V domains shown)
VH: QVQLQQSGPELVRPGVSVKISCKGSGYTVTDYAMHWVKQSHAKSLEWIGVISFYSGKTNYNQKFMGKATMTVDKSSSTAYMELARLTSEDSAIYYCARGLSGNYVMDYWGQGTSVTVSS
VL: DIVLTQSPASLAVSLGQRATISCRASESVDSYGNSFMHWYQQKPGQPPKLLIYRASNLESGIPARFSGSGSRTDFTLTINPVEADDVATYYCQQSNEGPPTFGGGTKLEIK
notes: Mouse hybridoma antibody; also called clone 15D2
For the molecule B12, the binding result in [13] and in test [14] was “binds” throughout.

B13: anti-BACE1 antibody 6266 (antibody, V domains shown)
VH: EVQLVQSGAEVKKPGSSVKVSCKASGGTLSGYGVSWVRQAPGQGLEWMGNIIPGFGTANYAQKFQGRVTITADESTSTAYMELSSLRSEDTAVYYCARSGGTKYGMLDVWGQGTMVTVSS
VL: EIVMTQSPATLSVSPGERATLSCRASQSVSSNLAWYQQKPGQAPRLLIYGASTRATGIPARFSGSGSGTEFTLTISSLQSEDFAVYYCQQLILWPPRTFGGGTKVEIK
notes: Fully human antibody
As to B13, the equilibrium dissociation constant (Kd) is 1.12 nM in test [15]; less than 0.3 nM in the test with human BACE1 ECD [18]; less than 0.31 nM with murine BACE1 ECD [19]; less than 0.24 nM in the test with human BACE1 ECD [20]; 0.32 nM with murine BACE1 ECD [21]. Also, the “IC50, Abeta x-40 in mouse cortical neurons” value in [16] was found to be 1.66 nM. Further, in [16], the “maximal % inhibition of Abeta x-40” value was found to be 87%. In addition, the “IC50, inhibition of Abeta x-40 production in primary mouse cortical neurons” value in [17] was 1.7 nM.

B14: bispecific antibody TfR^2/6266 (bispecific antibody, V domains shown)
VH 1: B1 VH
VL 1: B1 VL with W92A, A93G
VH 2: B13 VH
VL 2: B13 VL
On to B14, for which, in [17], the “IC50, inhibition of Abeta x-40 production in primary mouse cortical neurons” value amounted to 1.7 nM.

The values above are taken from patent US20180057604A1 (Genentech, published 2018).
